Experimental data as given in patent publication US20240036057A1, “DNA APTAMERS FOR THE DETECTION OF MONOMERIC CRP” (Universiteit Hasselt, published 2024).

B1: AmC2 (ssDNA)
DNA: GCACCAGCATATTCGATTGTGGCGGGTTGTGAAGGGTGGAGTATGGTCGTGTTGGTTGGGCTAGTAGGTGCATCAG
B2: AmC3 (ssDNA)
DNA: GCACCAGCATATTCGATTGGGAGCGCGGGGGAGAGTAGTGGGGAACGGTGGAGAGTTGGGCTAGTAGGTGCATCAG
B3: AmC4 (ssDNA)
DNA: GCACCAGCATATTCGATTGGGAGGTGTGAACGTTATGTGGTAGAGAGATGGGTGGTGGGGCTAGTAGGTGCATCAG

Assays:
[1] = biological target: T1, monomeric C-reactive protein (mCRP) (Homo sapiens, UniProt P02741 P02741:19-224); test: SPR; mCRP immobilized on CM4, pCRP reference cell; 1:1 Langmuir; ka 4.242E+03 1/Ms, kd 6.41E-04 1/s; aptamer binding buffer pH 7.4
T1 sequence: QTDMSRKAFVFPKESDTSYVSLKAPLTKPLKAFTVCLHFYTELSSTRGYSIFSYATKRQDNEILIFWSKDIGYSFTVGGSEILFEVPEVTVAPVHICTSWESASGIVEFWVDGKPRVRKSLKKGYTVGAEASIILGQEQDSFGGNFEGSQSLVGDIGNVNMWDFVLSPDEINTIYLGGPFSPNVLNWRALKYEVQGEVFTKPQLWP
Method: On the contrary the aptamer was very stable regeneration steps and therefore a multicycle kinetics analysis was performed for the evaluation of reaction kinetics of the aptamer. Pentameric CRP is immobilized in the reference flow cell and mCRP in the active cell at a low immobilization level (70 RU) to achieve an optimal kinetic analysis on CM4 biosensor chips. The kinetic analysis was performed with increasing concentrations of aptamer AmC2 (0-500 nM) applying for 200 sec of association and 200 sec dissociation at flow rate of 300 μl/min. A regeneration step of 120 sec using 1 M NaOH was applied between the injections of different concentrations. The Biacore evaluation software was used in the analysis for estimation of affinity rate constant by fitting the obtained binding sensogram using standard mathematical 1:1 Langmuir model.
The kinetic parameters of the antibody 3H12 and aptamer AmC2 were evaluated using the inbuilt kinetics modules of the Biacore T200 SPR (FIG. 2). […] The strength of the binding interaction between the ligand and target analyte can be measured based on the affinity constant value KD. […] The binding kinetics of the ligand to the target analyte is a time dependent interaction and in SPR this is measured as the association and dissociation constants (ka and kd). […]

[2] = biological target: T1, monomeric C-reactive protein (mCRP); test: SPR; 200 nM aptamer; 75 mM HEPES, 0.15 M NaCl pH 7.4
Method: Regeneration of the CM4 chip flow cells was achieved by applying 10 mM NaOH with 120 sec followed by several washing steps with 1× aptamer binding buffer. SPR binding concentrations were obtained as a resonance unit RU (1 RU=1 pg/mm² of the sensor surface) by calculating the binding units of antibody/aptamer and mCRP and correcting for the background signal observed in the reference channel.

| Binder | Kd [1] | binding result [2] |
| --- | --- | --- |
| B1 | 151 nM | – |
| B2 | – | binds |
| B3 | – | binds |
